Square brackets hold non-standard residues; d marks the D form. Ends that are not written are not given here. Ac6c = NC1(C(=O)O)CCCCC1
B1: peptide #2 (peptide)
chain: [Ac6c]RPKKPRPYLPRPRPPRPVR-NH2
modifications: N-terminus assumed
SMILES: CC(C)C[C@H](NC(=O)[C@H](Cc1ccc(O)cc1)NC(=O)[C@@H]1CCCN1C(=O)[C@H](CCCNC(=N)N)NC(=O)[C@@H]1CCCN1C(=O)[C@H](CCCCN)NC(=O)[C@H](CCCCN)NC(=O)[C@@H]1CCCN1C(=O)[C@H](CCCNC(=N)N)NC(=O)C1(N)CCCCC1)C(=O)N1CCC[C@H]1C(=O)N[C@@H](CCCNC(=N)N)C(=O)N1CCC[C@H]1C(=O)N[C@@H](CCCNC(=N)N)C(=O)N1CCC[C@H]1C(=O)N1CCC[C@H]1C(=O)N[C@@H](CCCNC(=N)N)C(=O)N1CCC[C@H]1C(=O)N[C@H](C(=O)N[C@@H](CCCNC(=N)N)C(N)=O)C(C)C
B2: peptide 102 (peptide)
peptide: [Ac6c]RPFFPRPYLPLPRPPRPVR-NH2
modifications: N-terminus assumed
SMILES: CC(C)C[C@H](NC(=O)[C@H](Cc1ccc(O)cc1)NC(=O)[C@@H]1CCCN1C(=O)[C@H](CCCNC(=N)N)NC(=O)[C@@H]1CCCN1C(=O)[C@H](Cc1ccccc1)NC(=O)[C@H](Cc1ccccc1)NC(=O)[C@@H]1CCCN1C(=O)[C@H](CCCNC(=N)N)NC(=O)C1(N)CCCCC1)C(=O)N1CCC[C@H]1C(=O)N[C@@H](CC(C)C)C(=O)N1CCC[C@H]1C(=O)N[C@@H](CCCNC(=N)N)C(=O)N1CCC[C@H]1C(=O)N1CCC[C@H]1C(=O)N[C@@H](CCCNC(=N)N)C(=O)N1CCC[C@H]1C(=O)N[C@H](C(=O)N[C@@H](CCCNC(=N)N)C(N)=O)C(C)C
B3: ARV-1502 (peptide)
peptide: [Ac6c]RPDKPRPYLPRPRPPRPVR-NH2
modifications: N-terminus assumed
SMILES: CC(C)C[C@H](NC(=O)[C@H](Cc1ccc(O)cc1)NC(=O)[C@@H]1CCCN1C(=O)[C@H](CCCNC(=N)N)NC(=O)[C@@H]1CCCN1C(=O)[C@H](CCCCN)NC(=O)[C@H](CC(=O)O)NC(=O)[C@@H]1CCCN1C(=O)[C@H](CCCNC(=N)N)NC(=O)C1(N)CCCCC1)C(=O)N1CCC[C@H]1C(=O)N[C@@H](CCCNC(=N)N)C(=O)N1CCC[C@H]1C(=O)N[C@@H](CCCNC(=N)N)C(=O)N1CCC[C@H]1C(=O)N1CCC[C@H]1C(=O)N[C@@H](CCCNC(=N)N)C(=O)N1CCC[C@H]1C(=O)N[C@H](C(=O)N[C@@H](CCCNC(=N)N)C(N)=O)C(C)C

How the values were obtained:
E. coli DnaK = E. coli DnaK (Escherichia coli, UniProt P0A6Y8 1-638); assay: FP
S. aureus DnaK = S. aureus DnaK (Staphylococcus aureus, UniProt P99110 1-610); assay: FP

| Binder | Ki (E. coli DnaK) [nM] | Ki (S. aureus DnaK) [nM] |
| --- | --- | --- |
| B1 | 600 | – |
| B2 | 310 | 4200 |
| B3 | 400 | 13700 |

Reference: PMC8864165 (2022)
